B1: Pistol ribozyme (parent)
chain: GGGUCGUUGUUCCAUAAUCGCGUGGAUAUGGCACGCAAGUUUCUACCGGGCACCGUAAAUGUCCGACUGGAGCCGUUCGGGCGGCUAUAAACAGACCUCAGGCCCGAAGCGUGGCGGCACCUGCCGCCGGUGGUAAAAAAGAUCGGAAGAGCACACGUCU

Variants of: B1
Assay: aptazyme ON/OFF ratio, guanine; higher = stronger switching; co-transcriptional cleavage with and without guanine

| Variant | aptazyme ON/OFF ratio |
| --- | --- |
| U7C G9U U11A C13G | 1.03 |
| U7C G9U U10G U11C C12U | 1.14 |
| U7C G9U U10G U11C C12G | 1.09 |
| U7C G9U U10G U11C C12A | 1.2 |
| U7C U8A C12U C13A | 1.17 |
| U7C U8A C12U C13G | 1.28 |
| U7C G9U U10G U11G C12A C13A | 1.1 |
| U7C G9U U10G U11G C12A C13U | 1.17 |
| U7C G9U U10G U11G C12A C13G | 1.1 |
| U7C G9U U10G U11G C12U | 1.16 |
| U7C G9U U10G U11G C12A | 1.22 |
| U7C G9U U10G U11G C12G | 1.14 |
| U7C G9U U10C U11A C12G C13U | 1.15 |
| U7C G9U U10C U11A C12G C13A | 1.19 |
| U7C G9U U10C U11A C12G C13G | 1.23 |
| U7C G9U U11A C12G C13G | 1.24 |
| U7C G9U U11A C12G C13A | 1.2 |
| U7C G9U U11A C12G C13U | 1.14 |
| U7C G9U U10G C12G C13U | 1.11 |
| U7C G9U U10G C12G C13A | 1.2 |
| U7C G9U U10G C12G C13G | 1.12 |

| Variant | aptazyme ON/OFF ratio |
| --- | --- |
| U7C G9U U11C C12A | 1.26 |
| U7C G9U U11C C12G | 1.08 |
| U7C G9U U11C C12U | 1.16 |
| U7C G9U U10G U11C C12G C13G | 1.11 |
| U7C G9U U10G U11C C12G C13A | 1.06 |
| U7C G9U U10G U11C C12G C13U | 1.12 |
| U7C G9U U10G U11A C13G | 1.06 |
| U7C G9U U10G U11A C13U | 1.06 |
| U7C G9U U10G U11A C13A | 1.09 |
| U7C G9U U10G U11C C13U | 1.07 |
| U7C G9U U10G U11C C13G | 1.06 |
| U7C G9U U10G U11C C13A | 1.28 |
| U7C U8A C12G C13G | 1.23 |
| U7C U8A C12G C13A | 1.14 |
| U7C U8A C12G C13U | 1.3 |
| U7C G9U U11A C12U | 1.39 |
| U7C G9U U11A C12G | 1.33 |
| U7C G9U U11A C12A | 1.36 |
| U7C G9U U11G C12A C13A | 1.19 |
| U7C G9U U11G C12A C13G | 1.1 |
| U7C G9U U11G C12A C13U | 1.14 |

| Variant | aptazyme ON/OFF ratio |
| --- | --- |
| U7C G9U U10C U11C C12G C13U | 1.02 |
| U7C G9U U10C U11C C12G C13G | 1.03 |
| U7C G9U U10C U11C C12G C13A | 1.03 |
| U7C G9U U11G C12A | 1.09 |
| U7C G9U U11G C12U | 1.47 |
| U7C G9U U11G C12G | 1.18 |
| U7C U8A C12A C13G | 1.09 |
| U7C U8A C12A C13A | 1.34 |
| U7C U8A C12A C13U | 1.39 |
| U7C G9U U10C U11A C12U C13G | 1.04 |
| U7C G9U U10C U11A C12U C13A | 1.13 |
| U7C G9U U10C U11A C12U C13U | 1.16 |
| U7C G9U U11C C12U C13U | 1.13 |
| U7C G9U U11C C12U C13G | 1.05 |
| U7C G9U U11C C12U C13A | 1.12 |
| U7C G9U U10G U11A C12A C13G | 1.13 |
| U7C G9U U10G U11A C12A C13U | 1.44 |
| U7C G9U U10G U11A C12A C13A | 1.2 |
| U7C G9U U11C C12A C13U | 1.14 |
| U7C G9U U11C C12A C13G | 1.07 |
| U7C G9U U11C C12A C13A | 1.15 |

| Variant | aptazyme ON/OFF ratio |
| --- | --- |
| U7C G9U U10G C12A C13G | 1.13 |
| U7C G9U U10G C12A C13U | 1.24 |
| U7C G9U U10G C12A C13A | 1.09 |
| U7C G9U U11G | 1.35 |
| U7C G9U U11A | 1.41 |
| U7C G9U U11C | 1.12 |
| U7C G9U U10G C12U C13U | 1.69 |
| U7C G9U U10G C12U C13G | 1.15 |
| U7C G9U U10G C12U C13A | 1.2 |
| U7C G9U U10C U11A C13G | 1.04 |
| U7C G9U U10C U11A C13U | 1.16 |
| U7C G9U U10C U11A C13A | 1.1 |
| U7C G9U U10C U11G C13A | 1.24 |
| U7C G9U U10C U11G C13U | 1.23 |
| U7C G9U U10C U11G C13G | 1.04 |
| U7C G9U U11A C12U C13U | 1.2 |
| U7C G9U U11A C12U C13A | 1.32 |
| U7C G9U U11A C12U C13G | 1.14 |
| U7C G9U U11G C13U | 1.15 |
| U7C G9U U11G C13G | 1.03 |
| U7C G9U U11G C13A | 1.21 |
